Assay results published in the supplement of paper PMC9233669.
Variants at the floor of the assay were thinned out.

Legend:
biotinyl-Trp-oxazolone = assay: self-aminoacylation, catalytic enhancement (BWO) (fold over background); higher = more active; k-Seq, kA / k0A0; sequences stand for … in GGGAAUGGAUCCACAUCUACGAAUUC…UUCACUGCAGACUUGACGAAGCUG
In short: (§1)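 Mutagenized RNA pools (0.43 μM; 21-nt variable region) were treated with 2–1250 μM of each biotinyl-aminoacyl-oxazolone. Conditions were 50 μL HEPES/NaCl/KCl/MgCl2/CaCl2 buffer, 5% acetonitrile, pH 6.9–7.0, room temperature, 90 minutes. Catalytic enhancement, the median kA relative to the uncatalyzed rate, was derived from streptavidin capture, qPCR and Illumina sequencing.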

biotinyl-Val-oxazolone = assay: self-aminoacylation, catalytic enhancement (BVO) (fold over background); higher = more active; k-Seq, kA / k0A0; sequences stand for … in GGGAAUGGAUCCACAUCUACGAAUUC…UUCACUGCAGACUUGACGAAGCUG
In short: as §1

biotinyl-Phe-oxazolone = assay: self-aminoacylation, catalytic enhancement (BFO) (fold over background); higher = more active; k-Seq, kA / k0A0; sequences stand for … in GGGAAUGGAUCCACAUCUACGAAUUC…UUCACUGCAGACUUGACGAAGCUG
In short: as §1

biotinyl-Met-oxazolone = assay: self-aminoacylation, catalytic enhancement (BMO) (fold over background); higher = more active; k-Seq, kA / k0A0; sequences stand for … in GGGAAUGGAUCCACAUCUACGAAUUC…UUCACUGCAGACUUGACGAAGCUG
In short: as §1

biotinyl-Leu-oxazolone = assay: self-aminoacylation, catalytic enhancement (BLO) (fold over background); higher = more active; k-Seq, kA / k0A0; sequences stand for … in GGGAAUGGAUCCACAUCUACGAAUUC…UUCACUGCAGACUUGACGAAGCUG
In short: as §1

biotinyl-Ile-oxazolone = assay: self-aminoacylation, catalytic enhancement (BIO) (fold over background); higher = more active; k-Seq, kA / k0A0; sequences stand for … in GGGAAUGGAUCCACAUCUACGAAUUC…UUCACUGCAGACUUGACGAAGCUG
In short: as §1

AUGACCCUUGUCAUCGAGUGA [Fam2.1 aminoacylation ribozyme variant]
self-aminoacylation (biotinyl-Trp-oxazolone): 7 | self-aminoacylation (biotinyl-Val-oxazolone): 3.19 | self-aminoacylation (biotinyl-Phe-oxazolone): 31.3 | self-aminoacylation (biotinyl-Met-oxazolone): 6.11 | self-aminoacylation (biotinyl-Leu-oxazolone): 6.36 | self-aminoacylation (biotinyl-Ile-oxazolone): 3.06

AUGACCUUGGUCAUCGAGUGA [Fam2.1 aminoacylation ribozyme variant]
self-aminoacylation (biotinyl-Trp-oxazolone): 6.29 | self-aminoacylation (biotinyl-Val-oxazolone): 3.1 | self-aminoacylation (biotinyl-Phe-oxazolone): 22.3 | self-aminoacylation (biotinyl-Met-oxazolone): 5.23 | self-aminoacylation (biotinyl-Leu-oxazolone): 5.27 | self-aminoacylation (biotinyl-Ile-oxazolone): 3.22

AUGAGCCUGGUCAUCGAGUGA [Fam2.1 aminoacylation ribozyme variant]
self-aminoacylation (biotinyl-Trp-oxazolone): 6.33 | self-aminoacylation (biotinyl-Val-oxazolone): 3.71 | self-aminoacylation (biotinyl-Phe-oxazolone): 31.3 | self-aminoacylation (biotinyl-Met-oxazolone): 5.66 | self-aminoacylation (biotinyl-Leu-oxazolone): 5.69 | self-aminoacylation (biotinyl-Ile-oxazolone): 3.82

AUGCACCUAGGUAAUCGGGUG [Fam2.2 aminoacylation ribozyme variant]
self-aminoacylation (biotinyl-Trp-oxazolone): 3.25 | self-aminoacylation (biotinyl-Val-oxazolone): 1.94 | self-aminoacylation (biotinyl-Phe-oxazolone): 10.9 | self-aminoacylation (biotinyl-Met-oxazolone): 2.56 | self-aminoacylation (biotinyl-Leu-oxazolone): 2.31 | self-aminoacylation (biotinyl-Ile-oxazolone): 2.07

AUGCACCUAGGUCAACGGGUG [Fam2.2 aminoacylation ribozyme variant]
self-aminoacylation (biotinyl-Trp-oxazolone): 2.21 | self-aminoacylation (biotinyl-Val-oxazolone): 1.95 | self-aminoacylation (biotinyl-Phe-oxazolone): 14.2 | self-aminoacylation (biotinyl-Met-oxazolone): 2.51 | self-aminoacylation (biotinyl-Leu-oxazolone): 2.68 | self-aminoacylation (biotinyl-Ile-oxazolone): 2.45

AUGCACCUAGGUCACCGGGUG [Fam2.2 aminoacylation ribozyme variant]
self-aminoacylation (biotinyl-Trp-oxazolone): 4.46 | self-aminoacylation (biotinyl-Val-oxazolone): 3.68 | self-aminoacylation (biotinyl-Phe-oxazolone): 25 | self-aminoacylation (biotinyl-Met-oxazolone): 3.97 | self-aminoacylation (biotinyl-Leu-oxazolone): 3.59 | self-aminoacylation (biotinyl-Ile-oxazolone): 3.86

AUGCACCUAGGUCAUCGGCUG [Fam2.2 aminoacylation ribozyme variant]
self-aminoacylation (biotinyl-Trp-oxazolone): 2.5 | self-aminoacylation (biotinyl-Val-oxazolone): 2.2 | self-aminoacylation (biotinyl-Phe-oxazolone): 11 | self-aminoacylation (biotinyl-Met-oxazolone): 2.3 | self-aminoacylation (biotinyl-Leu-oxazolone): 1.83 | self-aminoacylation (biotinyl-Ile-oxazolone): 1.99

AUGCACCUAGGUCAUCGGGUU [Fam2.2 aminoacylation ribozyme variant]
self-aminoacylation (biotinyl-Trp-oxazolone): 4.05 | self-aminoacylation (biotinyl-Val-oxazolone): 3.24 | self-aminoacylation (biotinyl-Phe-oxazolone): 5.22 | self-aminoacylation (biotinyl-Met-oxazolone): 4.43 | self-aminoacylation (biotinyl-Leu-oxazolone): 4.54 | self-aminoacylation (biotinyl-Ile-oxazolone): 3.66

AUGCACCUAGGUGAUCGGGUG [Fam2.2 aminoacylation ribozyme variant]
self-aminoacylation (biotinyl-Trp-oxazolone): 6.5 | self-aminoacylation (biotinyl-Val-oxazolone): 3.71 | self-aminoacylation (biotinyl-Phe-oxazolone): 30.7 | self-aminoacylation (biotinyl-Met-oxazolone): 4.8 | self-aminoacylation (biotinyl-Leu-oxazolone): 5.11 | self-aminoacylation (biotinyl-Ile-oxazolone): 4.96

AUGCACCUAGUUCAUCGGGUG [Fam2.2 aminoacylation ribozyme variant]
self-aminoacylation (biotinyl-Trp-oxazolone): 4.29 | self-aminoacylation (biotinyl-Val-oxazolone): 2.37 | self-aminoacylation (biotinyl-Phe-oxazolone): 13.6 | self-aminoacylation (biotinyl-Met-oxazolone): 2.73 | self-aminoacylation (biotinyl-Leu-oxazolone): 3.07 | self-aminoacylation (biotinyl-Ile-oxazolone): 2.77

AUGCACGUAGGUCAUCGGGUG [Fam2.2 aminoacylation ribozyme variant]
self-aminoacylation (biotinyl-Trp-oxazolone): 5.33 | self-aminoacylation (biotinyl-Val-oxazolone): 3.89 | self-aminoacylation (biotinyl-Phe-oxazolone): 45.4 | self-aminoacylation (biotinyl-Met-oxazolone): 4.47 | self-aminoacylation (biotinyl-Leu-oxazolone): 4.72 | self-aminoacylation (biotinyl-Ile-oxazolone): 3.52

AUGUAUGCUAAUAGUCGCAAG [Fam3.1 aminoacylation ribozyme variant]
self-aminoacylation (biotinyl-Trp-oxazolone): 1.95 | self-aminoacylation (biotinyl-Val-oxazolone): 1.39 | self-aminoacylation (biotinyl-Phe-oxazolone): 3.25 | self-aminoacylation (biotinyl-Met-oxazolone): 1.67 | self-aminoacylation (biotinyl-Leu-oxazolone): 1.14 | self-aminoacylation (biotinyl-Ile-oxazolone): 1.62

AUGUGUGCUAAUAGUCGCAAG [Fam3.1 aminoacylation ribozyme variant]
self-aminoacylation (biotinyl-Trp-oxazolone): 1.95 | self-aminoacylation (biotinyl-Val-oxazolone): 1.37 | self-aminoacylation (biotinyl-Phe-oxazolone): 3.53 | self-aminoacylation (biotinyl-Met-oxazolone): 1.2 | self-aminoacylation (biotinyl-Leu-oxazolone): 1.36 | self-aminoacylation (biotinyl-Ile-oxazolone): 1.57

AUGUUUGCUAAUAGCCGCAAG [Fam3.1 aminoacylation ribozyme variant]
self-aminoacylation (biotinyl-Trp-oxazolone): 1.36 | self-aminoacylation (biotinyl-Val-oxazolone): 1.04 | self-aminoacylation (biotinyl-Phe-oxazolone): 2.62 | self-aminoacylation (biotinyl-Met-oxazolone): 0.997 | self-aminoacylation (biotinyl-Leu-oxazolone): 1.14 | self-aminoacylation (biotinyl-Ile-oxazolone): 1.28

AUGUUUGCUAAUAGUCACAAG [Fam3.1 aminoacylation ribozyme variant]
self-aminoacylation (biotinyl-Trp-oxazolone): 2.35 | self-aminoacylation (biotinyl-Val-oxazolone): 1.01 | self-aminoacylation (biotinyl-Phe-oxazolone): 5.37 | self-aminoacylation (biotinyl-Met-oxazolone): 1.17 | self-aminoacylation (biotinyl-Leu-oxazolone): 1.07 | self-aminoacylation (biotinyl-Ile-oxazolone): 1.24

AUGUUUGCUAAUAGUCGAAAG [Fam3.1 aminoacylation ribozyme variant]
self-aminoacylation (biotinyl-Trp-oxazolone): 2.94 | self-aminoacylation (biotinyl-Val-oxazolone): 1.11 | self-aminoacylation (biotinyl-Phe-oxazolone): 8.7 | self-aminoacylation (biotinyl-Met-oxazolone): 1.08 | self-aminoacylation (biotinyl-Leu-oxazolone): 1.07 | self-aminoacylation (biotinyl-Ile-oxazolone): 1.28

AUGUUUGCUAAUAGUCGCACG [Fam3.1 aminoacylation ribozyme variant]
self-aminoacylation (biotinyl-Trp-oxazolone): 0.741 | self-aminoacylation (biotinyl-Val-oxazolone): 0.981 | self-aminoacylation (biotinyl-Phe-oxazolone): 1.24 | self-aminoacylation (biotinyl-Met-oxazolone): 1.02 | self-aminoacylation (biotinyl-Leu-oxazolone): 1.13 | self-aminoacylation (biotinyl-Ile-oxazolone): 1.15

AUGUUUGCUAAUAGUCGCAGG [Fam3.1 aminoacylation ribozyme variant]
self-aminoacylation (biotinyl-Trp-oxazolone): 1.95 | self-aminoacylation (biotinyl-Val-oxazolone): 1.33 | self-aminoacylation (biotinyl-Phe-oxazolone): 2.47 | self-aminoacylation (biotinyl-Met-oxazolone): 1.76 | self-aminoacylation (biotinyl-Leu-oxazolone): 1.8 | self-aminoacylation (biotinyl-Ile-oxazolone): 1.54

AUGUUUGCUAAUAGUCGCAUG [Fam3.1 aminoacylation ribozyme variant]
self-aminoacylation (biotinyl-Trp-oxazolone): 1.38 | self-aminoacylation (biotinyl-Val-oxazolone): 1.39 | self-aminoacylation (biotinyl-Phe-oxazolone): 1.52 | self-aminoacylation (biotinyl-Met-oxazolone): 1.58 | self-aminoacylation (biotinyl-Leu-oxazolone): 1.72 | self-aminoacylation (biotinyl-Ile-oxazolone): 1.34

AUGUUUGCUAAUAGUCGCCAG [Fam3.1 aminoacylation ribozyme variant]
self-aminoacylation (biotinyl-Trp-oxazolone): 1.76 | self-aminoacylation (biotinyl-Val-oxazolone): 1.29 | self-aminoacylation (biotinyl-Phe-oxazolone): 1.53 | self-aminoacylation (biotinyl-Met-oxazolone): 1.37 | self-aminoacylation (biotinyl-Leu-oxazolone): 1.51 | self-aminoacylation (biotinyl-Ile-oxazolone): 1.26

AUGUUUGCUAAUGGUCGCAAG [Fam3.1 aminoacylation ribozyme variant]
self-aminoacylation (biotinyl-Trp-oxazolone): 1.13 | self-aminoacylation (biotinyl-Val-oxazolone): 0.934 | self-aminoacylation (biotinyl-Phe-oxazolone): 1.63 | self-aminoacylation (biotinyl-Met-oxazolone): 0.875 | self-aminoacylation (biotinyl-Leu-oxazolone): 1.02 | self-aminoacylation (biotinyl-Ile-oxazolone): 1.16

AUGUUUGCUGAUAGUCGCAAG [Fam3.1 aminoacylation ribozyme variant]
self-aminoacylation (biotinyl-Trp-oxazolone): 1.38 | self-aminoacylation (biotinyl-Val-oxazolone): 1.37 | self-aminoacylation (biotinyl-Phe-oxazolone): 3.84 | self-aminoacylation (biotinyl-Met-oxazolone): 1.1 | self-aminoacylation (biotinyl-Leu-oxazolone): 1.33 | self-aminoacylation (biotinyl-Ile-oxazolone): 1.81

AUGUUUUCUAAUAGUCGCAAG [Fam3.1 aminoacylation ribozyme variant]
self-aminoacylation (biotinyl-Trp-oxazolone): 2.2 | self-aminoacylation (biotinyl-Val-oxazolone): 1.2 | self-aminoacylation (biotinyl-Phe-oxazolone): 2.58 | self-aminoacylation (biotinyl-Met-oxazolone): 1.62 | self-aminoacylation (biotinyl-Leu-oxazolone): 1.52 | self-aminoacylation (biotinyl-Ile-oxazolone): 1.62

AUUAACAUAGGUCAUCGGGUG [Fam2.2 aminoacylation ribozyme variant]
self-aminoacylation (biotinyl-Trp-oxazolone): 6.55 | self-aminoacylation (biotinyl-Val-oxazolone): 3.51 | self-aminoacylation (biotinyl-Phe-oxazolone): 38 | self-aminoacylation (biotinyl-Met-oxazolone): 6.29 | self-aminoacylation (biotinyl-Leu-oxazolone): 7 | self-aminoacylation (biotinyl-Ile-oxazolone): 3.92

AUUAACAUGGUCAUCGAGUGA [Fam2.1 aminoacylation ribozyme variant]
self-aminoacylation (biotinyl-Trp-oxazolone): 8.43 | self-aminoacylation (biotinyl-Val-oxazolone): 3.23 | self-aminoacylation (biotinyl-Phe-oxazolone): 26.1 | self-aminoacylation (biotinyl-Met-oxazolone): 5.53 | self-aminoacylation (biotinyl-Leu-oxazolone): 6.1 | self-aminoacylation (biotinyl-Ile-oxazolone): 3.41

AUUAACCAAGGUCAUCGGGUG [Fam2.2 aminoacylation ribozyme variant]
self-aminoacylation (biotinyl-Trp-oxazolone): 6.8 | self-aminoacylation (biotinyl-Val-oxazolone): 4.19 | self-aminoacylation (biotinyl-Phe-oxazolone): 43.2 | self-aminoacylation (biotinyl-Met-oxazolone): 7.25 | self-aminoacylation (biotinyl-Leu-oxazolone): 9.4 | self-aminoacylation (biotinyl-Ile-oxazolone): 3.81
